PMC3229523, “Identification of Lactoferricin B Intracellular Targets Using an Escherichia coli Proteome Chip” (PLoS ONE, 2011)
Ends that are not written are not given here. * marks the point of attachment. Biotin = O=C1N[C@H]2[C@H](CS[C@H]2CCCCC(=O)*)N1

Experiments:
Assay in all cases: peptide or protein array; E. coli proteome chip: purified His-tagged proteins printed in duplicate on Fullmoon slides, blocked with 1% BSA; 10 nM N-terminal biotinylated LfcinB with 1% BSA, room temperature, 1 h; detected with DyLight 649-labeled streptavidin, ratio to DyLight 549-labeled anti-His antibody; ProCAT normalisation, local cut-off; triplicate chips
Conditions in all cases: both partners purified
HyaE = biological target: T1, HyaE (E. coli K-12, UniProt P19931 1-132)
T1 construct: HyaE, E. coli K-12
T1 sequence (looked up): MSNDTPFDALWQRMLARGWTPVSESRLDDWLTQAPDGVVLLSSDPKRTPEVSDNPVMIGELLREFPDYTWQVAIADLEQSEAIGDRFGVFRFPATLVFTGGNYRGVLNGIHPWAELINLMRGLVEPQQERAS

YggF = biological target: T2, YggF (E. coli K-12, UniProt P21437 1-321)
T2 construct: YggF, E. coli K-12
T2 sequence (looked up): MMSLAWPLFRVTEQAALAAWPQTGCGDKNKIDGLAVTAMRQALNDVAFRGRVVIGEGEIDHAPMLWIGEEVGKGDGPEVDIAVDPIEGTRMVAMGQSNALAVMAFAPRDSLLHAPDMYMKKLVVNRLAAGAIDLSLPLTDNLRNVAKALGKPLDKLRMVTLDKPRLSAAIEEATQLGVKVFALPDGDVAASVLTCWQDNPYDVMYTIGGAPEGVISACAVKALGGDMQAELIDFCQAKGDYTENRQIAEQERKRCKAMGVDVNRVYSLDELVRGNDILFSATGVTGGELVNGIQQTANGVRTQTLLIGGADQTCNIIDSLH

FimZ = biological target: T3, FimZ (E. coli K-12, UniProt P0AEL8 1-210)
T3 construct: FimZ, E. coli K-12
T3 sequence (looked up): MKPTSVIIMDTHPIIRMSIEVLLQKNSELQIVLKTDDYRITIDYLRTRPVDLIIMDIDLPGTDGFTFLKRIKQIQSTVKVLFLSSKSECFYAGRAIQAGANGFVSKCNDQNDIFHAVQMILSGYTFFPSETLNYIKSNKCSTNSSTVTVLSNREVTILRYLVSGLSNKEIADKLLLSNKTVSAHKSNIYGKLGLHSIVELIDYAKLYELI

Smg = biological target: T4, Smg (E. coli K-12, UniProt P0A828 1-157)
T4 construct: Smg, E. coli K-12
T4 sequence (looked up): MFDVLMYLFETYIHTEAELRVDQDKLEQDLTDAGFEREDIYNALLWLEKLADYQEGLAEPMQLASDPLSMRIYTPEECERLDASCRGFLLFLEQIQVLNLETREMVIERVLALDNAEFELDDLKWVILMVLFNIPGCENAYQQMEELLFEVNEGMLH

YciT = biological target: T5, YciT (E. coli K-12, UniProt P76034 1-249)
T5 construct: YciT, E. coli K-12
T5 sequence (looked up): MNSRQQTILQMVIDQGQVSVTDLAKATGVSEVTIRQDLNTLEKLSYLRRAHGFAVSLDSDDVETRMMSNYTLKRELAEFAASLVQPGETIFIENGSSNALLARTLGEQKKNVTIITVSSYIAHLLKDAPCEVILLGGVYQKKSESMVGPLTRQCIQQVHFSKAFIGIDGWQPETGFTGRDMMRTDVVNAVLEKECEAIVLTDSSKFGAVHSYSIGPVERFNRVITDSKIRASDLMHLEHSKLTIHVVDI

YhdG = biological target: T6, YhdG (E. coli K-12, UniProt P0ABT5 1-321)
T6 construct: YhdG, E. coli K-12
T6 sequence (looked up): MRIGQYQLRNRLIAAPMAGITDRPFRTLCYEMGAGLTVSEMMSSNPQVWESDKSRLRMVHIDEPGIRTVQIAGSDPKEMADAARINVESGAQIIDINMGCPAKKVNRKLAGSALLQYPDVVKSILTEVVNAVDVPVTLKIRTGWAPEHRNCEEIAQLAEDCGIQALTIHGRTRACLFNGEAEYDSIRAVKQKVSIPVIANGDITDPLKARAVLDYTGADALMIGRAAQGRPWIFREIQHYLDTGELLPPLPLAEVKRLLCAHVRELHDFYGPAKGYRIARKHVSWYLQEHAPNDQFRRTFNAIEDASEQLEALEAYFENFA

YfbO = biological target: T7, YfbO (E. coli K-12, UniProt P76485 1-140)
T7 construct: YfbO, E. coli K-12
T7 sequence (looked up): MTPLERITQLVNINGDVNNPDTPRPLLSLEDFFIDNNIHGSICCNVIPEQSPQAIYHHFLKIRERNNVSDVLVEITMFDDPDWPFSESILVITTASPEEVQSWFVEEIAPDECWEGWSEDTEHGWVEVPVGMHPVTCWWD

Measured: binding result

B1: N-terminal biotinylated Lactoferricin B (peptide, UniProt P24627 36-60, looked up)
peptide: Biotin-FKCRRWQWRMKKLGAPSITCVRRAF
modifications: ends and bridges not checked
notes: lactoferricin B (LfcinB), cationic antimicrobial peptide of 25 amino acids; also called biotinylated LfcinB; biotin-labeled LfcinB; source: bought: Kelowna Inc
binds: HyaE | YggF | FimZ | Smg | YciT | YhdG | YfbO
